In article PMC4011586 one finds phosphorylation of PDGFRα in U373 cells stimulated with recombinant gB, cell based ELISA, relative to PDGF-AA (100%) data, which are given here for one substance.

This experiment addresses human platelet-derived growth factor alpha receptor (human (endogenous in U373)) (UniProt P16234).
Chain of UniProt P16234 (P16234 24-1089): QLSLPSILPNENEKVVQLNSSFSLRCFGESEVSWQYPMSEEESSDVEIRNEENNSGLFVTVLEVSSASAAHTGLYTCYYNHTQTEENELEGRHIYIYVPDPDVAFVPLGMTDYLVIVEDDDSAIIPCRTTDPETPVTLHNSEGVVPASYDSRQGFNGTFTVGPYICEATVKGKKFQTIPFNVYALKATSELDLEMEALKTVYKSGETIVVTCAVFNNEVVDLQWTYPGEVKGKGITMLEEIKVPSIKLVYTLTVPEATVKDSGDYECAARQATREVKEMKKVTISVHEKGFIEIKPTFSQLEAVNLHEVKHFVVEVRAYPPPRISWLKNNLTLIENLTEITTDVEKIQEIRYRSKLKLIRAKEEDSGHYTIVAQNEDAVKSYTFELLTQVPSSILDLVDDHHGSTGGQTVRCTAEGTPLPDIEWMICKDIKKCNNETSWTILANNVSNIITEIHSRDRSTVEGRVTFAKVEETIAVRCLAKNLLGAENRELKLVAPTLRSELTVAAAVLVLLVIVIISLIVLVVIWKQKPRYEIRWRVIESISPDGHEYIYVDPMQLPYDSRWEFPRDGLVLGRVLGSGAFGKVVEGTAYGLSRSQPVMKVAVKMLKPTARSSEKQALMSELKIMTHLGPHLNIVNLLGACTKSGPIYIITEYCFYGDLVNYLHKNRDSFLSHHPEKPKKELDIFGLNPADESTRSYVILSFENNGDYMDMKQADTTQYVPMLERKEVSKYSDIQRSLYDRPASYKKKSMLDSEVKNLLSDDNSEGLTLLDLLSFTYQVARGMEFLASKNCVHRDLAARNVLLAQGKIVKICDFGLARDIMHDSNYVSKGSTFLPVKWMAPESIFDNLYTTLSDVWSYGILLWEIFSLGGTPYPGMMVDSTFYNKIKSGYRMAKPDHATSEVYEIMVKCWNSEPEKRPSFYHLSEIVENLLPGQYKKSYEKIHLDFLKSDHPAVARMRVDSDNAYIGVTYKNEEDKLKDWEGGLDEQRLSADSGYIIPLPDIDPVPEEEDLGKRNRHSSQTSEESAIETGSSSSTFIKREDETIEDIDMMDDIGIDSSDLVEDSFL

In the case of “recombinant HCMV glycoprotein B (from UniProt P13201 23-907) (ligand)”, the phosphorylation of PDGFRα in U373 cells stimulated with recombinant gB, cell based ELISA, relative to PDGF-AA (100%) was 50%.
